Key:
[1] = tested on: GFP-positive and Snail-positive B16-F10 tumor cells; assay: In vivo, intratumoral administration, Snail-positive B16-F10 bone metastasis model (Example 17); design: species or system mouse; settings: intratumoral 200 μg/0.1 mL/tumor on day 7; day 14
Excerpt: Three antibodies were comparatively analyzed for their antitumor effects and an immunosuppression-mitigating effect using bone metastasis models in which mouse melanoma cells B16-F10 forced to express Snail were subcutaneously and intravenously transplanted in C57BL/6N mice.
1. Experiment Group (n=5) • 1. No treatment • 2. Control IgG (anti-DNP) • 3. Anti-FSTL1 Clone #6-55 • 4. Anti-FSTL1 Clone #7-34 • 5. Anti-FSTL1 Clone #8-1
• Day 0: transplantation of GFP-positive and Snail-positive B16-F10 tumor cells (5×10^5 cells subcutaneously & 1×10^5 cells intravenously) • Day 7: intratumoral administration of the antibody (200 μg/0.1 mL/tumor) • Day 14: various assays (with a focus on flow cytometry analysis)
• Effects on the growth of subcutaneous tumor (calculation of tumor volume by tumor size measurement): measured 7, 11, and 14 days after tumor implantation (FIG. 41C) • Effects on bone metastasis (GFP-positive tumor cells in bone marrow) (FIG. 41A) • Effects on the expansion of mesenchymal stem cells (CD45-negative cells in bone marrow and in the spleen) (FIGS. 41B and 41D) • Effects on the expansion of immunosuppressive Treg cells (CD4-positive and Foxp3-positive cells in bone marrow or the spleen) (FIG. 41D) • Other immunosuppressive properties (FIG. 41D)
In order to evaluate in vivo antibody activity, antitumor effects and immunosuppression-mitigating effects were comparatively analyzed using bone metastasis models in which mouse melanoma cells ([…]) forced to express Snail were subcutaneously and intravenously transplanted in C57BL/6N mice. […]
It is known that when Snail-positive tumor cells are subcutaneously or intravenously transplanted to mice, the tumor metastasizes preferentially to bone marrow in addition to various organs, and this incurs the expansion of mesenchymal stem cells (MSCs) originating in the bone marrow, thereby systemically and strongly suppressing the induction of antitumor immunity (Cancer Research 73: 6185, 2013). […] The percentage (%) of CD45^− cells in the bone marrow cells was analyzed by flow cytometry. […]

FSTL1 [2] = biological target: T1, FSTL1 (Homo sapiens, UniProt Q12841); assay: Affinity of mouse chimeric antibodies, Biacore T-200 (Example 33); assay type: binding
T1 sequence (Q12841 21-308): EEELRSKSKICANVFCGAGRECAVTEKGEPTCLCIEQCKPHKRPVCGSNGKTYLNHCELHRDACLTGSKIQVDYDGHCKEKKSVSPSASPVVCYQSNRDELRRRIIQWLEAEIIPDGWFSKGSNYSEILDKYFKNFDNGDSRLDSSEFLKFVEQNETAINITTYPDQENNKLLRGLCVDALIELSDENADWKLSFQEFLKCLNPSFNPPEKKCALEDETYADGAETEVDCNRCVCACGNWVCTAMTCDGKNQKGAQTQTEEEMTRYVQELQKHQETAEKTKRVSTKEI
Method: (§1) The mouse chimeric antibodies were immobilized onto Sensor Chip CM5 (GE Healthcare Japan Corp., BR-1005-30) using Mouse Antibody Capture Kit (GE Healthcare Japan Corp., BR-1008-38), and their affinity for human FSTL1 was calculated using Biacore T-200 (GE Healthcare Japan Corp.).
First, the exhaustive activity comparison of the obtained antibodies was conducted with the human FSTL1 concentration fixed to 10 μg/ml (Table 33-1, FIG. 28).
Next, the KD values of clone #6-55, #7-34, and #13 presumed to have high affinity in FIG. 28 were calculated with the antigen concentration adjusted to 0 to 20 μg/ml (Table 35-2).

FSTL1 [3] = biological target: T1, FSTL1; assay: Biacore T-200 affinity of mouse chimeric antibodies for human FSTL1 (Example 33); assay type: binding
Method: as §1
First, the exhaustive activity comparison of the obtained antibodies was conducted with the human FSTL1 concentration fixed to 10 μg/ml (Table 33-1, FIG. 122).
Next, the KD values of clone #6-55, #7-34, and #13 presumed to have high affinity in FIG. 122 were calculated with the antigen concentration adjusted to 0 to 20 μg/ml (Table 35-2).

Molecule	bone metastasis (GFP-positive tumor cells in bone marrow) [1]	affinity in surface plasmon resonance assay (FSTL1 [2])	affinity in an assay system using surface plasmon resonance (FSTL1 [3])
#6-55: chicken-mouse chimeric anti-FSTL1 antibody clone; variable regions SEQ ID NO: 783 (light), 785 (heavy) (antibody, V domains shown, mouse constant regions) VH: AVTLDESGGGLQTPGGALSLVCKGSGFTFTSVTMQWVRQAPGKGLEWVASVCSGSSTYYAPAVKGRATISRDNGQSTVRLQLSNLRPEDTGTYYCAKIAGRARWSCTSAAYNIDAWGHGTEVIVSS VL: ASTQPSSVSAIPGETVKITCSGGGNNYGWYQQRSPGSAPVTVIYYNDNRPSNIPSRFSGSTSGSTSTLTITGVQADDEAIYYCGSWDSNTDSGIFGAGTTLTVL	suppressed	strong affinity	strong affinity
#7-34: chicken-mouse chimeric anti-FSTL1 antibody clone; variable regions SEQ ID NO: 787 (light), 789 (heavy) (antibody, V domains shown, mouse constant regions) VH: AVTLDESGGGLQTPGGGLSLVCKASGFTFSSVTMQWVRQAPGKGLEWVASICSGSSTYYGPAVKGRATISRDNGQNTVRLQLNNLRAEDTATYYCAKIVGRGRWSCTSAAYNIDAWGHGTEVIVSS VL: ASTQPSSVSANPGETVKITCSGGGNNYGWYQQKSPGSAPVTVIYYNNNRPSNIPSRFSGSTSGSTSTLTITGVQAEDEAVYYCGSYEGSTDSGIFGAGTTLTVL	no suppressive effect was seen		
#8-1: chicken-mouse chimeric anti-FSTL1 antibody clone; variable regions SEQ ID NO: 791 (light), 793 (heavy) (antibody, V domains shown, mouse constant regions) VH: AVTLDESGGGLQTPGGALSLVCKGSGFTFSSFNMFWVRQAPGKGLEWVAGIGKDGVPKYGAAVDGRATISKDNGQSTMRLQLNNLRAEDTGTYFCAKAAGGCSYDWCGIYAGDIDTWGHGTEVIVSS VL: ASTQPSSVSANPGEAVKITCSGGSGSYYGWYQQKSPGSAPVTVIYNNNQRPSDIPSRFSGSKSGSTATLTITGVQAEDEAVYFCGGYDSSSGHGGIFGAGTTLTVL	suppressed		
#13: chicken-mouse chimeric anti-FSTL1 antibody clone; variable regions SEQ ID NO: 815 (light), 817 (heavy) (antibody, V domains shown, mouse constant regions) VH: AVTLDESGGGLQTPGGGLSLVCKASGFTFSSVTMQWVRQAPGKGLEWVASICSGSSTYYGPAVKGRATISRDNGQNTVRLQLNNLRAEDTATYYCAKIVGRGRWSCTSAAYNIDAWGHGTEVIVSS VL: ASTQPSSVSANPGETVKITCSGGGNNYGWYQQKSPGSAPVTVIYNNNNRPSNIPSRFSGSKSGSTNTLTITGVQAEDEAVYYCGSYDSSSDSGIFGAGTTLTVL		strong affinity	strong affinity
#33: chicken-mouse chimeric anti-FSTL1 antibody clone; variable regions SEQ ID NO: 823 (light), 825 (heavy) (antibody, V domains shown, mouse constant regions) VH: AVTLDESGGGLQTPGGGLSLVCKASGFTFSSFNMNWVRQAPGKGLEYVAEISGTGSSTYYGSAVKGRATISRDNGQSTVRLQLNNLRAEDTATYFCARGDGAYSIDAWGHGTEVIVSS VL: ASTQPSSVSANPGETVEITCSGDSSYYGWFQQKSPGSAPVTVIYDNTNRPSDIPSRFSGSKSGSTATLTITGVRAEDEAVYYCGGYDSSTYDGIFGAGTTLTVL		strong affinity	strong affinity

Source: patent US20180021429A1, “ANTICANCER AGENTS OR ANTIMETASTATIC AGENTS USING FSTL1 AND COMBINATION DRUG THEREOF” (PHARMA FOODS INTERNATIONAL CO., LTD., priority 2015, published 2018)
